Test results: patent publication US20170291939A1 (Novartis, published 2017)
Substitutions are numbered along the chain they refer to.

T1: human IL-17A biotin (human) (UniProt Q16552)
T1 sequence (chain, biotinylated, site not given): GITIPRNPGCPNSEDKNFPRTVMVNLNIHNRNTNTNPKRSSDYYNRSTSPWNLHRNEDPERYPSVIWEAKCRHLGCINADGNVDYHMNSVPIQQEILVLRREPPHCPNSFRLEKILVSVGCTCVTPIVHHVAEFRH

T2: recombinant huIL-17A (SEQ ID NO: 76) (human, UniProt Q16552 24-155, limits assumed)
T2 sequence: T1 sequence (chain, biotinylated, site not given)

T3: human IL-17A (construct not specified) (human, UniProt Q16552 24-155, limits assumed)
T3 sequence: T1 sequence (chain, biotinylated, site not given)

T4: recombinant mIL-17A (mouse, UniProt Q62386 26-158)
T4 sequence: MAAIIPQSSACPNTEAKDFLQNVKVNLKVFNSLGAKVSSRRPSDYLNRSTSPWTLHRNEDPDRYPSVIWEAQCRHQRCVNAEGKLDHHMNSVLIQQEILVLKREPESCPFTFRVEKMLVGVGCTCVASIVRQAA

B1: XAB4T (Fab, part only; not given: CH1 and tag, part only)
heavy, part: EVQLVESGGDLVQPGGSLRLSCAASGFTFSSYWMSWVRQAPGKGLEWVANIKQDGSEKYYVDSVKGRFTISRDNAKNSLYLQMNSLRAEDTAVYYCARDRGSLYYWGQGTLVTVSSGSGGG
light: AIQLTQSPSSLSASVGDRVTITCRPSQGINWELAWYQQKPGKAPKLLIYDASSLEQGVPSRFSGSGSGTDFTLTISSLQPEDFATYYCQQFNSYPLTFGGGTKVEIKRTVAAPSVFIFPPSDEQLKSGTASVVCLLNNFYPREAKVQWKVDNALQSGNSQESVTEQDSKDSTYSLSSTLTLSKADYEKHKVYACEVTHQGLSSPVTKSFNRGEC
B2: XAB3 (antibody, human IgG1, kappa, V domains shown)
VH: EVQLVESGGDLVQPGGSLRLSCAASGFTFSSYWMSWVRQAPGKGLEWVANIKQDGSEKYYVDSVKGRFTISRDNAKNSLYLQMNSLRAEDTAVYYCARDRGSLYYWGQGTLVTVSS
VL: AIQLTQSPSSLSASVGDRVTITCRPSQGIYWELAWYQQKPGKAPKLLIYDASSLEQGVPSRFSGSGSGTDFTLTISSLQPEDFATYYCQQFNSYPLTFGGGTKVEIKR
B3: XAB5 (antibody, human IgG1, kappa, V domains shown)
VH: B2 VH
VL: B2 VL with Y30N, Q56N

Key:
[1] = target: T1, human IL-17A biotin (human); experiment: SPR (Biacore), 25° C., biotinylated ligand
[2] = target: T2, recombinant huIL-17A (SEQ ID NO: 76); experiment: cell-based or functional assay
[3] = target: T3, human IL-17A (construct not specified); experiment: cell-based or functional assay
[4] = target: T4, recombinant mIL-17A; experiment: cell-based or functional assay
[5] = target: T2, recombinant huIL-17A (SEQ ID NO: 76); experiment: cell-based or functional assay; remark: listed apart in the source

| Binder | Kd [1] [nM] | koff [1] [s⁻¹] | kon [1] [M⁻¹ s⁻¹] | IC50, huGROα secretion by BJ cells; rhuIL-17A (0.5 nM) [2] [nM] | EC50, T = 0 weeks [3] [µg/mL] | EC50, T = 4 weeks at pH 8, 40° C. (forced deamidation) [3] [ng/ml] | IC50, KC secretion by CMT-93 cells; mIL-17A (0.15 nM) [4] [nM] | IC50, huIL-6 secretion by BJ cells; rhuIL-17A (0.5 nM) [5] [nM] |
| --- | --- | --- | --- | --- | --- | --- | --- | --- |
| B1 | 0.00768 | 3.46e-05 | 4.51e+06 | – | – | – | – | – |
| B2 | – | – | – | 0.42 | 0.04 | 40 | < 1 | 0.5 |
| B3 | – | – | – | 0.46 | 0.045 | 61 | 7.8 | 0.54 |
